Data reported in paper PMC2874204 (Cancer cell, 2010).

Molecular target: RUNX1 Runt domain (UniProt Q01196 50-178)
Assay: ITC

Sequence of RUNX1 Runt domain (Q01196 50-178): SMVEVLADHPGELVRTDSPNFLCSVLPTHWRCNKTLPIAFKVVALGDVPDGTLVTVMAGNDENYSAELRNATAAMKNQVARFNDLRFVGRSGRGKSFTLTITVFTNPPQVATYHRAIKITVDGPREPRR

Kd: ~709 nM
stoichiometry N: 1.17
B1: CBFβ-SMMHC_(d134-236) (type I CBFβ-SMMHC fusion protein) (other)
chain: MPRVVPDQRSKFENEEFFRKLSRECEIKYTGFRDRPHEERQARFQNACRDGRSEIAFVATGTNLSLQFFPASWQGEQRQTPSREYVDLEREAGKVYLKAPMILNGVCVIWKGWIDLQRLDGMGCLEFDEERAQLHEYETELEDERKQRALAAAAKKKLEGDLKDLELQADSAIKGREEAIKQLRKLQAQMKDFQRELEDARASRDEIFATAKENEKKAKSLEADLMQLQEDLAAAERARKQADLEKEELAEELASSLSGRNALQDEKRRLEARIAQLEEELEEEQGNMEAMSDRVRKATQQAEQLSNELATERSTAQKNESARQQLERQNKELRSKLHEMEGAVKSKFKSTIAALEAKIAQLEEQVEQEAREKQAATKSLKQKDKKLKEILLQVEDERKMAEQYKEQAEKGNARVKQLKRQLEEAEEESQRINANRRKLQRELDEATESNEAMGREVNALKSKLRRGNETSFVPSRRSGGRRVIENADGSEEETDTRDADFNGTKASE
